Laboratory results published in US7521047.
Blank lines part the entries; values can stand above or below the substance they belong to.

Legend:
[1] = molecular target: HLA-DR on NALM-1 cells (human); assay: flow cytometry, NALM-1 cells stained with FITC-labelled L243 (HLA-DR expression)
[2] = molecular target: HLA-DR on RPMI-8226 cells (human); assay: flow cytometry, RPMI-8226 cells stained with FITC-labelled L243 (HLA-DR expression)
[3] = molecular target: HLA-DR on DOHH-2 cells (human); assay: flow cytometry, DOHH-2 cells stained with FITC-labelled L243 (HLA-DR expression)
[4] = molecular target: HLA-DR on L-428 cells (human); assay: flow cytometry, L-428 cells stained with FITC-labelled L243 (HLA-DR expression)
[5] = molecular target: HLA-DR on RAJI cells (human); assay: cell-based or functional assay
[6] = molecular target: HLA-DR on RPMI-8226 cells (human); assay: cell-based or functional assay
[7] = molecular target: HLA-DR on L1236 cells (human); assay: cell-based or functional assay
[8] = molecular target: HLA-DR on L-428 cells (human); assay: cell-based or functional assay
[9] = molecular target: HLA-DR on KM-H2 cells (human); assay: cell-based or functional assay
[10] = molecular target: HLA-DR on BJAB cells (human); assay: cell-based or functional assay
[11] = molecular target: HLA-DR on NALM-1 cells (human); assay: cell-based or functional assay
[12] = molecular target: HLA-DR on MHH-CALL-2 cells (human); assay: cell-based or functional assay
[13] = molecular target: HLA-DR on L-363 cells (human); assay: cell-based or functional assay
[14] = molecular target: HLA-DR on ARH-77 cells (human); assay: cell-based or functional assay
[15] = molecular target: HLA-DR on MHH-PREB-1 cells (human); assay: cell-based or functional assay
[16] = molecular target: HLA-DR on MN-60 cells (human); assay: cell-based or functional assay
[17] = molecular target: HLA-DR on MHH-CALL-4 cells (human); assay: cell-based or functional assay
[18] = molecular target: HLA-DR on HD-MY-Z cells (human); assay: cell-based or functional assay
[19] = molecular target: HLA-DR on EOL-1 cells (human); assay: cell-based or functional assay
[20] = molecular target: HLA-DR on HC-1 cells (human); assay: cell-based or functional assay
[21] = molecular target: HLA-DR on SR-786 cells (human); assay: cell-based or functional assay
[22] = molecular target: HLA-DR on HDLM-2 cells (human); assay: cell-based or functional assay
[23] = molecular target: HLA-DR on BONNA-12 cells (human); assay: cell-based or functional assay
[24] = molecular target: HLA-DR on KARPAS-422 cells (human); assay: cell-based or functional assay
[25] = molecular target: HLA-DR on KARPAS-299 cells (human); assay: cell-based or functional assay
[26] = molecular target: HLA-DR on LG-2 cells (human); assay: cell-based or functional assay
[27] = molecular target: HLA-DR on DOHH-2 cells (human); assay: cell-based or functional assay
[28] = molecular target: HLA-DR on GRANTA-519 cells (human); assay: cell-based or functional assay
[29] = molecular target: HLA-DR on LP-1 cells (human); assay: cell-based or functional assay
[30] = molecular target: HLA-DR on RAJI cells (human); assay: flow cytometry, RAJI cells stained with FITC-labelled L243 (HLA-DR expression)
[31] = molecular target: HLA-DR on LG-2 cells (human); assay: flow cytometry, LG-2 cells stained with FITC-labelled L243 (HLA-DR expression)
[32] = molecular target: HLA-DR on EOL-1 cells (human); assay: flow cytometry, EOL-1 cells stained with FITC-labelled L243 (HLA-DR expression)
[33] = molecular target: HLA-DR on KARPAS-422 cells (human); assay: flow cytometry, KARPAS-422 cells stained with FITC-labelled L243 (HLA-DR expression)
[34] = molecular target: HLA-DR on HDLM-2 cells (human); assay: flow cytometry, HDLM-2 cells stained with FITC-labelled L243 (HLA-DR expression)
[35] = molecular target: HLA-DR on MHH-PREB-1 cells (human); assay: flow cytometry, MHH-PREB-1 cells stained with FITC-labelled L243 (HLA-DR expression)
[36] = molecular target: HLA-DR on MN-60 cells (human); assay: flow cytometry, MN-60 cells stained with FITC-labelled L243 (HLA-DR expression)
[37] = molecular target: HLA-DR on BONNA-12 cells (human); assay: flow cytometry, BONNA-12 cells stained with FITC-labelled L243 (HLA-DR expression)
[38] = molecular target: HLA-DR on L-363 cells (human); assay: flow cytometry, L-363 cells stained with FITC-labelled L243 (HLA-DR expression)
[39] = molecular target: HLA-DR on ARH-77 cells (human); assay: flow cytometry, ARH-77 cells stained with FITC-labelled L243 (HLA-DR expression)
[40] = molecular target: HLA-DR on GRANTA-519 cells (human); assay: flow cytometry, GRANTA-519 cells stained with FITC-labelled L243 (HLA-DR expression)
[41] = molecular target: HLA-DR on KM-H2 cells (human); assay: flow cytometry, KM-H2 cells stained with FITC-labelled L243 (HLA-DR expression)
[42] = molecular target: HLA-DR on LP-1 cells (human); assay: flow cytometry, LP-1 cells stained with FITC-labelled L243 (HLA-DR expression)
[43] = molecular target: HLA-DR on SR-786 cells (human); assay: flow cytometry, SR-786 cells stained with FITC-labelled L243 (HLA-DR expression)
[44] = molecular target: HLA-DR on BJAB cells (human); assay: flow cytometry, BJAB cells stained with FITC-labelled L243 (HLA-DR expression)
[45] = molecular target: HLA-DR on HD-MY-Z cells (human); assay: flow cytometry, HD-MY-Z cells stained with FITC-labelled L243 (HLA-DR expression)
[46] = molecular target: HLA-DR on HC-1 cells (human); assay: flow cytometry, HC-1 cells stained with FITC-labelled L243 (HLA-DR expression)
[47] = molecular target: HLA-DR (allele and form not stated); assay: not stated (Z. A. Nagy, unpublished)
[48] = molecular target: HLA-DR on KARPAS-299 cells (human); assay: flow cytometry, KARPAS-299 cells stained with FITC-labelled L243 (HLA-DR expression)
[49] = molecular target: HLA-DR on MHH-CALL-4 cells (human); assay: flow cytometry, MHH-CALL-4 cells stained with FITC-labelled L243 (HLA-DR expression)
[50] = molecular target: HLA-DR on L1236 cells (human); assay: flow cytometry, L1236 cells stained with FITC-labelled L243 (HLA-DR expression)
[51] = molecular target: chimeric 0401-IE class II molecule on cells of transgenic mice (human/murine chimera); assay: cell-based or functional assay
[52] = molecular target: HLA-DR on chronic lymphoid leukemia (CLL) cells of patients (human); assay: cell-based or functional assay

Chain of L243 (antibody) (VH): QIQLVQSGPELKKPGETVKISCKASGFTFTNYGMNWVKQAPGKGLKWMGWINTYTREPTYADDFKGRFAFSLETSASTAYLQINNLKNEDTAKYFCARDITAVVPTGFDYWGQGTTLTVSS
Chain of L243 (antibody) (VL): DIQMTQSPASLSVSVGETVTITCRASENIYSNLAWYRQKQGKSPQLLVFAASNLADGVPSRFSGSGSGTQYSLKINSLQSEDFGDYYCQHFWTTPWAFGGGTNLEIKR
Chain of MS-GPC-8 IgG4 (antibody) (VH): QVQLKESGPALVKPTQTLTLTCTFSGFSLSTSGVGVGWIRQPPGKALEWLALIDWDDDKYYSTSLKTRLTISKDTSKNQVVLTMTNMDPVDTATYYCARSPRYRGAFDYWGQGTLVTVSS
Chain of MS-GPC-8 IgG4 (antibody) (VL): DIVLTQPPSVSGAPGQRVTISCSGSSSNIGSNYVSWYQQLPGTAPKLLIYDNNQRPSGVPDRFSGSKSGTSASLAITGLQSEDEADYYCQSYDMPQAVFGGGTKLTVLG

MFL (mean fluorescence intensity) [1]: 1080 MFL
MFL (mean fluorescence intensity) [2]: 19 MFL
MFL (mean fluorescence intensity) [3]: 444 MFL
MFL (mean fluorescence intensity) [4]: 244 MFL
MFL (mean fluorescence intensity) [30]: 617 MFL
MFL (mean fluorescence intensity) [31]: 458 MFL
MFL (mean fluorescence intensity) [32]: 536 MFL
MFL (mean fluorescence intensity) [33]: 211 MFL
MFL (mean fluorescence intensity) [34]: 326 MFL
MFL (mean fluorescence intensity) [35]: 175 MFL
MFL (mean fluorescence intensity) [36]: 1120 MFL
MFL (mean fluorescence intensity) [37]: 2430 MFL
MFL (mean fluorescence intensity) [38]: 49 MFL
MFL (mean fluorescence intensity) [39]: 301 MFL
MFL (mean fluorescence intensity) [40]: 1460 MFL
MFL (mean fluorescence intensity) [41]: 619 MFL
MFL (mean fluorescence intensity) [42]: 315 MFL
MFL (mean fluorescence intensity) [43]: 142 MFL
MFL (mean fluorescence intensity) [44]: 338 MFL
MFL (mean fluorescence intensity) [45]: 79 MFL
MFL (mean fluorescence intensity) [46]: 372 MFL
Kd [47]: 0.01 µM
MFL (mean fluorescence intensity) [48]: 798 MFL
MFL (mean fluorescence intensity) [49]: 348 MFL
MFL (mean fluorescence intensity) [50]: 41 MFL
Substance: L243 (antibody)
% Killing by mAb, 200 nM, 4 h [5]: 69%
% Killing by mAb, 200 nM, 4 h [6]: 6%
% Killing by mAb, 200 nM, 4 h [7]: 52%
% Killing by mAb, 200 nM, 4 h [8]: 82%
% Killing by mAb, 200 nM, 4 h [9]: 81%
% Killing by mAb, 200 nM, 4 h [10]: 53%
% Killing by mAb, 200 nM, 4 h [11]: 44%
% Killing by mAb, 200 nM, 4 h [12]: 5%
% Killing by mAb, 200 nM, 4 h [13]: 6%
% Killing by mAb, 200 nM, 4 h [14]: 88%
% Killing by mAb, 200 nM, 4 h [15]: 3%
% Killing by mAb, 200 nM, 4 h [16]: 46%
% Killing by mAb, 200 nM, 4 h [17]: 35%
% Killing by mAb, 200 nM, 4 h [18]: 35%
% Killing by mAb, 200 nM, 4 h [19]: 22%
% Killing by mAb, 200 nM, 4 h [20]: 88%
% Killing by mAb, 200 nM, 4 h [21]: 3%
% Killing by mAb, 200 nM, 4 h [22]: 77%
% Killing by mAb, 200 nM, 4 h [23]: 92%
% Killing by mAb, 200 nM, 4 h [24]: 25%
% Killing by mAb, 200 nM, 4 h [25]: 78%
% Killing by mAb, 200 nM, 4 h [26]: 79%
% Killing by mAb, 200 nM, 4 h [27]: 29%
% Killing by mAb, 200 nM, 4 h [28]: 83%
% Killing by mAb, 200 nM, 4 h [29]: 12%

IC50 of inhibition of IL-2 secretion from T-Hyb 1 cells [51]: 0.011 µM
Maximum inhibition(%) of IL-2 secretion [51]: 100%
Substance: MS-GPC-8 IgG4 (antibody)
% Killing by mAb, 50 nM, 4 h [6]: 14%
% Killing by mAb, 50 nM, 4 h [7]: 44%
% Killing by mAb, 50 nM, 4 h [9]: 75%
% Killing by mAb, 50 nM, 4 h [10]: 49%
viable CLL cells after 24 hours, 100 nM IgG (told for all three human IgGs) [52]: 33%
viable activated CLL cells after 4 hours, 100 nM IgG (average for all patient samples and antibodies) [52]: 24%
% Killing by mAb, 50 nM, 4 h [13]: 26%
% Killing by mAb, 50 nM, 4 h [15]: 2%
% Killing by mAb, 50 nM, 4 h [16]: 71%
% Killing by mAb, 50 nM, 4 h [17]: 43%
% Killing by mAb, 50 nM, 4 h [18]: 49%
% Killing by mAb, 50 nM, 4 h [19]: 36%
% Killing by mAb, 50 nM, 4 h [21]: 1%
% Killing by mAb, 50 nM, 4 h [24]: 51%
% Killing by mAb, 50 nM, 4 h [27]: 58%
% Killing by mAb, 50 nM, 4 h [28]: 76%
% Killing by mAb, 50 nM, 4 h [29]: 61%
